Experimental data published in US6303339A, “DNA segments encoding autoimmune polypeptide epitopes of Ro/ss-A antigen” (Board of Regents, The University of Texas System, priority 1991, dated 2001).

What was measured:
[1] = cited from earlier work
[2] = system: anti-Ro/SS-A antibodies (human autoimmune serum); assay: ELISA, immobilized peptide reacted with human autoimmune anti-Ro/SS-A serum; assay type: binding
Description: Human antisera. Anti-Ro/SS-A sera were selected by the presence of a single precipitin line in Ouchterlony analysis having complete identify with prototypic sera used in studies of Lieu et al. (17). The absence of antibodies to other nuclear antigens such as La/SS-B, U1 -RNP and Sm was also confirmed by ELISA. Monospecific anti-Sm and anti-La/SS-B human autoimmune sera were originally obtained from the laboratory of Dr. E. M. Tan (Scripps Research Institute, La Jolla, Calif.).
The native Ro/SS-A antigen (5 ug/ml) or synthetic peptide (10 ug/ml) in PBS was added to wells of a microtiter plate and incubated 16 hours at 4° C. The plates were washed with PBS-Tween and the remaining sites were coated with 1% BSA for 1 hour. After washing 3 times with PBS-Tween, sera diluted with 1% BSA, 0.5% bovine gamma globulin (BGG) in PBS-Tween were added and incubated for 2 hours. The plates were then washed 3 times with PBS-Tween. Peroxidase conjugated goat-anti-human IgG diluted 1:3000 in PBS-Tween containing 1% BSA and 0.5% BGG was added and incubated for 2 hours at room temperature. The plates were washed in a similar manner. […] The optical density was measured using a Titertek Multiskan brand ELISA plate reader.

For “native purified protein: native 60 kD Ro protein purified from the human Wil-2 cell line”, the “isoelectric point measured from the native purified protein” value [1] is listed as 4.67.

B1: ribonuclease A (protein, UniProt P61823 27-150, looked up)
Ribonuclease pancreatic: KETAAAKFERQHMDSSTSAASSSNYCNQMMKSRNLTKDRCKPVNTFVHESLADVQAVCSQKNVACKNGQTNCYQSYSTMSITDCRETGSSKYPNCAYKTTQANKHIIVACEGNPYVPVHFDASV
notes: control polypeptide in ELISA
For B1, the “binding to anti-Ro/SS-A serum in ELISA (in words)” value [2] was “did not react”.
